The test system of the series is HIV-1 Rev (HIV-1). Description: EMSA. Particulars: scale: fold more Rev than RRE for 50% unbound RNA. (In general: Mobility shift assays separate free from complexed probe on a gel.)

Results on 1 substance are retold here after publication PMC7842262.

Substance 433-mer RcRE (K-RRE) came in with a binding signal of 8.
